Values joined by “and” are separate entries in the source; they are usually repeats but may differ in a detail not shown here. Equal values may be shown once. Each block holds one substance with its values, some of them ahead of it.
What was measured:
[1] = biological target: GPC3 endogenously expressed on HepG2 cells (UniProt P51654); experiment: FACS on HepG2 cells
[2] = biological target: human GPC3-His protein (human) (UniProt P51654); experiment: ELISA, coated human GPC3, antibody 1 nM
[3] = biological target: human GPC3-His protein (human) (UniProt P51654); experiment: ELISA, coated human GPC3, antibody 0.001 nM
[4] = biological target: human GPC3-His protein (human) (UniProt P51654); experiment: ELISA, coated human GPC3, antibody 0.0001 nM
[5] = biological target: human GPC3-His protein (human) (UniProt P51654); experiment: ELISA, coated human GPC3, antibody 0.1 nM
[6] = biological target: human GPC3-His protein (human) (UniProt P51654); experiment: ELISA, coated human GPC3, antibody 100 nM
[7] = biological target: human GPC3-His protein (human) (UniProt P51654); experiment: ELISA, coated human GPC3, antibody 10 nM
[8] = biological target: human GPC3-His protein (human) (UniProt P51654); experiment: ELISA, coated human GPC3, antibody 0.01 nM
[9] = biological target: monkey GPC3-His protein (Acro, Cat. No. GP3-C5225) (monkey); experiment: ELISA, coated monkey GPC3-His
[10] = biological target: human GPC3 expressed on CHO-K1 recombinant cells (human) (UniProt P51654); experiment: FACS on CHO-K1 clone CHOK1-hGPC3.1C3
[11] = biological target: murine GPC3-His protein (Sino Biological, Cat. No. 50989-M08B) (murine) (UniProt Q8CFZ4); experiment: ELISA, coated murine GPC3-His
[12] = biological target: human GPC3-His protein (Acro, Cat. No. GP3-H52H4) (human) (UniProt P51654); experiment: ELISA, coated human GPC3-His
[13] = biological target: GPC3 expressed endogenously on HepG2 cells (UniProt P51654); experiment: FACS on HepG2 cells, control in the row of T2-23
[14] = biological target: human GPC3 expressed on CHO-K1 recombinant cells (human) (UniProt P51654); experiment: FACS on CHO-K1 clone CHOK1-hGPC3.3E9
[15] = biological target: human GPC3 expressed on CHO-K1 recombinant cells (human) (UniProt P51654); experiment: FACS on CHO-K1 clone CHOK1-hGPC3.2B5
[16] = biological target: GPC3 expressed endogenously on HepG2 cells (UniProt P51654); experiment: FACS on HepG2 cells, control in the row of Y035
[17] = biological target: GPC3 on HepG2 cells (human) (UniProt P51654); experiment: FACS on HepG2 cells

Chain of murine GPC3-His protein (Sino Biological, Cat. No. 50989-M08B) (murine) (Q8CFZ4 25-558 limits assumed): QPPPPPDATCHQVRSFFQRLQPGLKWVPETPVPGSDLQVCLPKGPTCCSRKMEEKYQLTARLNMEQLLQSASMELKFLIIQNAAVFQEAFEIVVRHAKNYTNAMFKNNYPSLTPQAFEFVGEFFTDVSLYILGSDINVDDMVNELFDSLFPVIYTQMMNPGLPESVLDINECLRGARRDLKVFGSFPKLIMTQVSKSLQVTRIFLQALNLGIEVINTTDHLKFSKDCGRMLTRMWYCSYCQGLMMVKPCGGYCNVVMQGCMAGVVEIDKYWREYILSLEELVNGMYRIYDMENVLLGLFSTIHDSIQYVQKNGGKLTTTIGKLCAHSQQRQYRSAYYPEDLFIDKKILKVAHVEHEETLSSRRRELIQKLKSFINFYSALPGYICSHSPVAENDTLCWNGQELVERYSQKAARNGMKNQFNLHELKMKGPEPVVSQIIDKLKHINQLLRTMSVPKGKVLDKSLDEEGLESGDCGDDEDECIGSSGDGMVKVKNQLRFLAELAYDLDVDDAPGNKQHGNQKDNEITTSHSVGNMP

- Max MFI [1]: 154 MFI and 258 MFI and 110 MFI
- OD450 nm [2]: 0.09 OD450
- OD450 nm [3]: 0.09 OD450
- OD450 nm [4]: 0.09 OD450
- OD450 nm [5]: 0.09 OD450
- OD450 nm [6]: 0.11 OD450
- OD450 nm [7]: 0.09 OD450
- OD450 nm [8]: 0.09 OD450
Substance: hIgG1 (IgG subtype control, human IgG1) (antibody)

- OD450 at 0.0001 nM antibody [9]: 0.048 OD450
- OD450 at 0.001 nM antibody [9]: 0.044 OD450
- OD450 at 0.01 nM antibody [9]: 0.044 OD450
- OD450 at 0.1 nM antibody [9]: 0.045 OD450
- OD450 at 1 nM antibody [9]: 0.044 OD450
- OD450 at 10 nM antibody [9]: 0.047 OD450
- OD450 at 100 nM antibody [9]: 0.056 OD450
- Mean fluorescence intensity of cells [10]: 19.3 MFI
- OD450 at 0.0001 nM antibody [11]: 0.049 OD450
- OD450 at 0.001 nM antibody [11]: 0.051 OD450
- OD450 at 0.01 nM antibody [11]: 0.052 OD450
- OD450 at 0.1 nM antibody [11]: 0.05 OD450
- OD450 at 1 nM antibody [11]: 0.05 OD450
- OD450 at 10 nM antibody [11]: 0.055 OD450
- OD450 at 100 nM antibody [11]: 0.105 OD450
- OD450 at 0.0001 nM antibody [12]: 0.047 OD450
- OD450 at 0.001 nM antibody [12]: 0.048 OD450
- OD450 at 0.01 nM antibody [12]: 0.048 OD450
- OD450 at 0.1 nM antibody [12]: 0.05 OD450
- OD450 at 1 nM antibody [12]: 0.048 OD450
- OD450 at 10 nM antibody [12]: 0.05 OD450
- OD450 at 100 nM antibody [12]: 0.072 OD450
- Mean fluorescence intensity of cells [13]: 137 MFI
- Mean fluorescence intensity of cells [14]: 19.3 MFI
- Mean fluorescence intensity of cells [15]: 19.3 MFI
- Mean fluorescence intensity of cells [16]: 137 MFI
Substance: hIgG1 (antibody)

- OD450 at 0.0001 nM antibody [11]: 0.06 OD450 nm
- OD450 at 0.001 nM antibody [11]: 0.05 OD450 nm
- OD450 at 0.01 nM antibody [11]: 0.05 OD450 nm
- OD450 at 0.1 nM antibody [11]: 0.06 OD450 nm
- OD450 at 1 nM antibody [11]: 0.05 OD450 nm
- OD450 at 10 nM antibody [11]: 0.06 OD450 nm
- OD450 at 100 nM antibody [11]: 0.12 OD450 nm
Substance: hIgG1 control (antibody)

- Max MFI [17]: 58.8
Substance: hIgG (antibody)
